Experimental findings from patent publication US20150175707 are described below.

The data set in a line: HP-SEC as in Example 20; Fc:Fc self-oligomerization. Background: Size exclusion chromatography separates by hydrodynamic size, large species first.

“IgG1-2F8-RGY (EGFR antibody 2F8 with E345R/E430G/S440Y)”: the “fraction oligomer (HP-SEC)” value is “IgG1-2F8-RGY (74.5%)”. With “IgG1-7D8-RGY (CD20 antibody 7D8 with E345R/E430G/S440Y)”, the “fraction oligomer (HP-SEC)” value was “IgG1-7D8-RGY (67.2%)”. With “IgG2-005-RGY (IgG2-005-E345R/E430G/S440Y)”, the “% multimeric (HP-SEC)” value is listed as “IgG2-005-RGY (46.1% multimeric)”. In the case of IgG3-005-RGY, the “% multimeric (HP-SEC)” value is “IgG3-005-RGY (37.8% multimeric)”. The same measure, in the same setting: as for IgG4-005-RGY, the entry is “IgG4-005-RGY (84.4% multimeric)”.
